Patent US20180185467A1 (Harvard, published 2018)

Biological target: T1, GST-NS3 of YFV (strain 17D) (Yellow Fever virus, strain 17D, UniProt P03314 1485-2107)
T1 construct: domain: NS3; also called YFV NS3; NS3 of Yellow Fever virus
T1 sequence: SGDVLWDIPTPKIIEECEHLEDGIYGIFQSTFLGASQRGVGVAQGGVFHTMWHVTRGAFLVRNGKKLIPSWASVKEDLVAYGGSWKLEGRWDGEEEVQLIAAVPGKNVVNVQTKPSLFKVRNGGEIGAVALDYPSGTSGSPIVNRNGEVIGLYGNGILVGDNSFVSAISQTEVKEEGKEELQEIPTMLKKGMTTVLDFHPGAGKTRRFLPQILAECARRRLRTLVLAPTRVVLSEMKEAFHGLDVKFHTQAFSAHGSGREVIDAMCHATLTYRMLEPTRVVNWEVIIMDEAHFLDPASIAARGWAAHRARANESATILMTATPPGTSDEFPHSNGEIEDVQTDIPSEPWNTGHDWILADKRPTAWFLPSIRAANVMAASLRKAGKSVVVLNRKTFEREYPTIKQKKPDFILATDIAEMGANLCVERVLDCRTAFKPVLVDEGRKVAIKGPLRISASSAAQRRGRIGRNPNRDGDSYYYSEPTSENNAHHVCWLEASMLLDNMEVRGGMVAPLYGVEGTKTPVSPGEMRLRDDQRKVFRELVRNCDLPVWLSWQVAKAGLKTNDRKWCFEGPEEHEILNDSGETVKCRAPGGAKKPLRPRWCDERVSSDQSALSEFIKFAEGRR
Experiment: GST pull-down in 293T cells, immunoblot with anti-14-3-3ε

B1: endogenous 14-3-3ε (other)
chain: MDDREDLVYQAKLAEQAERYDEMVESMKKVAGMDVELTVEERNLLSVAYKNVIGARRASWRIISSIEQKEENKGGEDKLKMIREYRQMVETELKLICCDILDVLDKHLIPAANTGESKVFYYKMKGDYHRYLAEFATGNDRKEAAENSLVAYKAASDIAMTELPPTHPIRLGLALNFSVFYYEILNSPDRACRLAKAAFDDAIAELDTLSEESYKDSTLIMQLLRDNLTLWTSDMQGDGEEQNKEALQDVEDENQ
B1: no binding.
